From patent EP0459978B1, “CLASS I MHC MODULATION OF SURFACE RECEPTOR ACTIVITY” (THE REGENTS OF THE UNIVERSITY OF CALIFORNIA, priority 1989, dated 1997)

Experiment: Peptide depletion (degradation or adsorption) during the experimental period, by HPLC and 125I-labeled peptide
Type: physicochemical
Conditions: HPLC and 125I-labeled peptide; concentrations above 0.1 )M

For “dynorphin A: control peptide purchased from Peninsula Laboratories”, the “depletion (degradation or adsorption) during the experimental period” value was “No significant depletion”.
